Patent US20240084019A1 (OSE IMMUNOTHERAPEUTICS, published 2024)

T1: Biot-C7 peptide: biotinylated NH2-PYHTLNLLELHHTAMPGSVFSLGLPLATALAIA-COOH (human, biotinylated (position not given))
T1 construct: also called C7biot; biotinylated antigen-specific peptide
T1 peptide: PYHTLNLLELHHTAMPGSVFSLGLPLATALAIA


What was measured:
[1] = target: T1, Biot-C7 peptide: biotinylated …; assay: activity ELISA on Biot-C7 peptide; column head printed ED50 (ng/ml)
[2] = target: T1, Biot-C7 peptide: biotinylated …; assay: activity ELISA on biotinylated C7 peptide; column head printed ED50 (ng/ml)
[3] = target: T1, Biot-C7 peptide: biotinylated …; assay: activity ELISA on Biot-C7 peptide; column head printed ED50 (ng/ml); batch #170919
[4] = target: T1, Biot-C7 peptide: biotinylated …; assay: activity ELISA on Biot-C7 peptide; column head printed ED50 (ng/ml); second batch, no number

EC50 [1]	EC50 [2]	EC50 [3]	EC50 [4]	Binder
0.222 µg/mL	0.269 µg/mL			anti-CMKLR1 antibody 2G1 (parental chimeric antibody) (antibody, human IgG1, V domains shown, also called 2G1 wt; 2G1 WT) VH: EVQLVASGGGLVQPGGSLKLSCAASGFTFSSYGMSWVRQTPDRRLELVATINRYGGSTYYPDSVKGRFTISRDNAKNTLYLQMSSLKSEDTAMYYCPRLIYYGNEGDSWGQGTTLTVSS VL: QIVLTQSPAIMSASPGEKVTMTCSASSSVSFMHWYQQKSGTSPKRWIYDTTKLTSGVPARFSGSGSGTFYSLTISSMEAEDAATYYCQQWNSKPPLTFGPGTKLELKR
0.193 µg/mL	0.195 µg/mL			HDLD humanized anti-CMKLR1 antibody (antibody, human IgG1, V domains shown, Variable domains only; fused to constant fragment of human immunoglobulin (human IgG1, kappa)) VH: EVQLVESGGGLVQPGGSLRLSCAASGFTFSSYAMSWVRQAPGKGLELVATINRYGGSTYYAASVKGRFTISRDNSKNTLYLQMNSLRAEDTAVYYCPKLIYYGNEGDSWGQGTLVTVSS VL: AIQLTQSPSSLSASVGDRVTITCRASQSVSFLHWYQQKPGKAPKRWIYDATKLTSGVPSRFSGSGSGTDFTLTISSLQPEDFATYYCQQWQSKPPLTFGGGTKVEIK
0.237 µg/mL				HD-LDT52S humanized anti-CMKLR1 antibody (antibody, V domains shown, fused to constant fragment of human immunoglobulin) VH: EVQLVESGGGLVQPGGSLRLSCAASGFTFSSYAMSWVRQAPGKGLELVATINRYGGSTYYAASVKGRFTISRDNSKNTLYLQMNSLRAEDTAVYYCPKLIYYGNEGDSWGQGTLVTVSS VL: AIQLTQSPSSLSASVGDRVTITCRASQSVSFLHWYQQKPGKAPKRWIYDASKLTSGVPSRFSGSGSGTDFTLTISSLQPEDFATYYCQQWQSKPPLTFGGGTKVEIK
	0.557 µg/mL	0.253 µg/mL	0.195 µg/mL	HALA humanized anti-CMKLR1 antibody (VHvAv3-23*04 + VLvAv1-13*01) (antibody, human IgG1, V domains shown, Variable domains only; also called germline antibody HALA; IGHV3-23*04 + IGKV1-13*02) VH: EVQLVESGGGLVQPGGSLRLSCAASGFTFSSYGMSWVRQAPGKGLELVATINRYGGSTYYPDSVKGRFTISRDNSKNTLYLQMNSLRAEDTAVYYCPRLIYYGNEGDSWGQGTLVTVSS VL: AIQLTQSPSSLSASVGDRVTITCSASSSVSFMHWYQQKPGKAPKRWIYDTTKLTSGVPSRFSGSGSGTDYTLTISSLQPEDFATYYCQQWNSKPPLTFGGGTKVEIK
	0.167 µg/mL			HCLC humanized anti-CMKLR1 antibody (antibody, human IgG1, V domains shown, Variable domains only; fused to constant fragment of human immunoglobulin (human IgG1, kappa)) VH: EVQLVESGGGLVQPGGSLRLSCAASGFTFSSYGMSWVRQAPGKGLELVATINRYGGSTYYAASVKGRFTISRDNSKNTLYLQMNSLRAEDTAVYYCPKLIYYGNEGDSWGQGTLVTVSS VL: AIQLTQSPSSLSASVGDRVTITCRASQSVSFLHWYQQKPGKAPKRWIYDATKLTSGVPSRFSGSGSGTDFTLTISSLQPEDFATYYCQQWNSKPPLTFGGGTKVEIK
0.126 µg/mL				HEF-LDT52S humanized anti-CMKLR1 antibody (antibody, V domains shown, fused to constant fragment of human immunoglobulin) VH: EVQLVESGGGLVQPGGSLRLSCAASGFTFSSYAMSWVRQAPGKGLELVSTISGSGGSTYYAASVKGRFTISRDNSKNTLYLQMNSLRAEDTAVYYCPKLIYYGNEGDSWGQGTLVTVSS VL: AIQLTQSPSSLSASVGDRVTITCRASQSVSFLHWYQQKPGKAPKRWIYDASKLTSGVPSRFSGSGSGTDFTLTISSLQPEDFATYYCQQWQSKPPLTFGGGTKVEIK
	0.197 µg/mL			HDLC humanized anti-CMKLR1 antibody (antibody, human IgG1, V domains shown, Variable domains only; fused to constant fragment of human immunoglobulin (human IgG1, kappa)) VH: EVQLVESGGGLVQPGGSLRLSCAASGFTFSSYAMSWVRQAPGKGLELVATINRYGGSTYYAASVKGRFTISRDNSKNTLYLQMNSLRAEDTAVYYCPKLIYYGNEGDSWGQGTLVTVSS VL: AIQLTQSPSSLSASVGDRVTITCRASQSVSFLHWYQQKPGKAPKRWIYDATKLTSGVPSRFSGSGSGTDFTLTISSLQPEDFATYYCQQWNSKPPLTFGGGTKVEIK
0.183 µg/mL				HEF-LEF humanized anti-CMKLR1 antibody (antibody, V domains shown, fused to constant fragment of human immunoglobulin) VH: EVQLVESGGGLVQPGGSLRLSCAASGFTFSSYAMSWVRQAPGKGLELVSTISGSGGSTYYAASVKGRFTISRDNSKNTLYLQMNSLRAEDTAVYYCPKLIYYGNEGDSWGQGTLVTVSS VL: AIQLTQSPSSLSASVGDRVTITCRASQSVSFLHWYQQKPGKAPKRLIYDASKLESGVPSRFSGSGSGTDFTLTISSLQPEDFATYYCQQWQSKPPLTFGGGTKVEIK
	0.333 µg/mL			HCLD humanized anti-CMKLR1 antibody (antibody, human IgG1, V domains shown, Variable domains only; fused to constant fragment of human immunoglobulin (human IgG1, kappa)) VH: EVQLVESGGGLVQPGGSLRLSCAASGFTFSSYGMSWVRQAPGKGLELVATINRYGGSTYYAASVKGRFTISRDNSKNTLYLQMNSLRAEDTAVYYCPKLIYYGNEGDSWGQGTLVTVSS VL: AIQLTQSPSSLSASVGDRVTITCRASQSVSFLHWYQQKPGKAPKRWIYDATKLTSGVPSRFSGSGSGTDFTLTISSLQPEDFATYYCQQWQSKPPLTFGGGTKVEIK
